The RNAGym collection of RNA variant scans (doi:10.7554/elife.80360)

B1: Hairpin Ribozyme (parent)
chain: GUCCUCUUUCACGUGCGCGUGAAAGAGAGAAGUGAACCAGAGAAACACACGUUGUGGUAUAUUACCUGGUA

Variants of: B1
Experiment: self-cleavage, relative activity (ratio to wild type); higher = more cleavage; co-transcriptional

Going from U63A U67A to G15C U67C, the self-cleavage falls from 0.208 to 0.2.

Compared with C6A G68A, A39C C46U is lower in self-cleavage: 0.176 for the first, 0.103 for the second.

First: G17C C46U
Second: A11U G69C
The self-cleavage of the first is lower: 0.113 for the first, 0.229 for the second.

Compared with A26C A30G, U2C A30C is higher in self-cleavage: 0.0971 for the first, 0.185 for the second.

Compared with U52A A59U, C4G C6U is lower in self-cleavage: 0.243 for the first, 0.0456 for the second.

Going from A36U G68C to G32U G51C, the self-cleavage rises from 0.129 to 0.148.

Going from U20C G69U to C6A G54A, the self-cleavage rises from 0.23 to 0.342.

First: G15A A22C
Second: U5A A35G
The self-cleavage of the first is higher: 0.821 for the first, 0.559 for the second.

Compared with U20C A44U, C3G C46U is lower in self-cleavage: 0.115 for the first, 0.101 for the second.

Going from U2A G25U to C46U U62A, the self-cleavage falls from 0.204 to 0.148.

Going from U58C A64U to U58A C65G, the self-cleavage rises from 0.0829 to 0.0985.

First: A24G A45C
Second: G15A C50U
The self-cleavage of the first is lower: 0.235 for the first, 0.356 for the second.

Going from U63A A71G to A30U U33C, the self-cleavage falls from 0.221 to 0.196.

Compared with A36U U58G, U20A G32U is lower in self-cleavage: 0.417 for the first, 0.0356 for the second.

Going from C3A G57C to G21C A23G, the self-cleavage rises from 0.169 to 0.77.

First: G1U G54C
Second: U20C G40C
The self-cleavage of the first is lower: 0.176 for the first, 0.218 for the second.

Going from G51U G57C to A28U C65A, the self-cleavage rises from 0.137 to 0.497.

Compared with G51C U58A, U20A U55C is lower in self-cleavage: 0.653 for the first, 0.258 for the second.

Compared with C16G U20C, U9A C50A is lower in self-cleavage: 0.868 for the first, 0.264 for the second.

Going from A61C C66U to U2G A41U, the self-cleavage rises from 0.145 to 0.71.

Compared with U9G U67C, C38U U70A is higher in self-cleavage: 0.188 for the first, 0.522 for the second.

First: C6G C18G
Second: A49U A61G
The self-cleavage of the first is higher: 0.395 for the first, 0.13 for the second.

Compared with C3G A45C, G32A U60G is higher in self-cleavage: 0.0981 for the first, 0.197 for the second.

First: G15A U58C
Second: G51C C66G
The self-cleavage of the first is higher: 1.03 for the first, 0.206 for the second.
